US20240376218A1
Blank lines part the entries; values can stand above or below the substance they belong to.

Assays:
[1] = biological target: FcRn immobilized on FcRn column (Roche, Order No. 8128057001); test: FcRn affinity chromatography, linear pH gradient
[2] = biological target: human CCR8 tagged with ProLink (human); test: cell-based or functional assay
[3] = biological target: cynomolgus CCR8 (cynomolgus); test: FACS, CHO cells expressing cynomolgus CCR8, signal at saturation
human CCR8 (human) = human CCR8 (human) (UniProt P51685); test: cell-based or functional assay
[4] = biological target: human CCR4 (P51679_CCR4_HUMAN) (human) (UniProt P51679); test: cell-based or functional assay
human CCR4 (P51679_CCR4_HUMAN) (human), sequence (P51679 whole entry): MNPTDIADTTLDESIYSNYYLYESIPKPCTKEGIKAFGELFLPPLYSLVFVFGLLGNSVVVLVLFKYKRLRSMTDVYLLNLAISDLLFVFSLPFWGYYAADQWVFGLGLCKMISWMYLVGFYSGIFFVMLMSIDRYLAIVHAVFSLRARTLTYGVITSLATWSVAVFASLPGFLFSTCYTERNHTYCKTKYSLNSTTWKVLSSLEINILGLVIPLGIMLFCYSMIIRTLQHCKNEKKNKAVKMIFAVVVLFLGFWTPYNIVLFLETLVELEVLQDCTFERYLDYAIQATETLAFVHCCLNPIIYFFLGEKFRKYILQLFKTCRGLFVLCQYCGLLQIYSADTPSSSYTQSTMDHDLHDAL

human CCR4 (human) = human CCR4 (human) (UniProt P51679); test: cell-based or functional assay
human CCR4 (human), sequence (P51679 whole entry): as above

murine CCR8 (mouse) = murine CCR8 (mouse) (UniProt P56484); test: cell-based or functional assay
murine CCR8 (mouse), sequence (P56484 whole entry): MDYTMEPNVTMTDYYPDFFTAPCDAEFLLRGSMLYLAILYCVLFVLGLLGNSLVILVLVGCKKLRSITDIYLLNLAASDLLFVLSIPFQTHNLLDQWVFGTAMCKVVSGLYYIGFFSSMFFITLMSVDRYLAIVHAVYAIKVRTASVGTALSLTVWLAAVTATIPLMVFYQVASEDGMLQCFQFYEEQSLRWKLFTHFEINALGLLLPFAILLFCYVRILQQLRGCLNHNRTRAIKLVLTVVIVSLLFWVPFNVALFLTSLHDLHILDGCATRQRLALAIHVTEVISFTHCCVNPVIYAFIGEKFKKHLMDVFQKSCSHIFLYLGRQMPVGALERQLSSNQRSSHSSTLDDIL

Ustekinumab (antibody), sequence (HC): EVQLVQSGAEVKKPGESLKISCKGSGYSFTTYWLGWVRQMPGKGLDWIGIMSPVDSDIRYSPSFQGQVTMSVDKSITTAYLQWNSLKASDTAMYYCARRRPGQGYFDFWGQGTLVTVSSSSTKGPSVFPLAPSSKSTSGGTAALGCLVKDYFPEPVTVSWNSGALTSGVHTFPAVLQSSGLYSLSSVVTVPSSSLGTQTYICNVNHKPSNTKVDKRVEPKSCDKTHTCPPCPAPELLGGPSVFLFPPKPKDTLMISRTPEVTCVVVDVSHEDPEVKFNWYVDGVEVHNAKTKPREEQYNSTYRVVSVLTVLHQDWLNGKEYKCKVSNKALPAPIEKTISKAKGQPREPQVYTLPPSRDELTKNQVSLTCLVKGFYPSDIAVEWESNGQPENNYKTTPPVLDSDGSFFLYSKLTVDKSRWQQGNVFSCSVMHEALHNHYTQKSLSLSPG
Ustekinumab (antibody), sequence (LC): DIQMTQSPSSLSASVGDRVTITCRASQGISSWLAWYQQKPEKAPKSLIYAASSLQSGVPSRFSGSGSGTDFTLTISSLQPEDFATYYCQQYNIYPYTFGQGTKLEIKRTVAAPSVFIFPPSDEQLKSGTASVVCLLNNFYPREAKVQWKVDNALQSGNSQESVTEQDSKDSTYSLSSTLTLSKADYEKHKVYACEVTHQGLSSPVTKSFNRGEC
cynomolgus CCR8 (cynomolgus), sequence (O97665 other isoform, or with tags, fused parts or gaps): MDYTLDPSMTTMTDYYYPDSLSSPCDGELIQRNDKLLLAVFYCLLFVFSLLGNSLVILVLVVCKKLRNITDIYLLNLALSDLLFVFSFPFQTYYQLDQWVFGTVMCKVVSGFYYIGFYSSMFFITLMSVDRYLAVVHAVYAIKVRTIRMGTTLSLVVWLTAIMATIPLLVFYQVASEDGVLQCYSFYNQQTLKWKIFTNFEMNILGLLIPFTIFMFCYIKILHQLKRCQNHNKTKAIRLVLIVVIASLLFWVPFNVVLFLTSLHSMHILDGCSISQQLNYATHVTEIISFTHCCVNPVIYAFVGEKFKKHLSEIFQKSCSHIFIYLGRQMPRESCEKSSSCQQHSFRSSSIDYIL

EC80 of β-arrestin signaling (DiscoverX assay) [2]: 20 ng/mL
Substance: CCL1 (human) (from UniProt P22362 24-96) (ligand)

IC50 in nM for inhibition of CCL1 induced β-arrestin signaling (DiscoverX assay), CHO with hCCR8 [2]: 13.8 nM | Ca flux assay IC50 (nM), block of signaling induced by CCL1 at 60 ng/ml; CHO cells expressing human CCR8 (human CCR8 (human)): 1.26 nM | Ca flux assay Span ratio (from max to min), block of signaling induced by CCL1 at 60 ng/ml; CHO cells expressing human CCR8 (human CCR8 (human)): 921 | Internalization [fold isotype], HuT78 cells, BODIPY FL-labelled antibody (human CCR8 (human)): 22 fold isotype
Substance: L263G8 (antibody)

Internalization [fold isotype], mBW5147.3 cells, BODIPY FL-labelled antibody (murine CCR8 (mouse)): 11 fold isotype
Substance: SA214G2 (antibody)

More lines, now with the values behind:

Substance: Briakinumab (antibody)
pH at Elution [1]: 7.85 pH

Substance: L263G8 (Biolegend) (antibody)
MFI [3]: < 1000

Substance: Mogamulizumab (antibody)
ADCC EC50, activated Tregs + NK92v, Donor 1213 [4]: 0.31 nM | ADCC EC50, activated Tregs + NK92v, Donor 1730 [4]: 1.09 nM | ADCC Max Response, activated Tregs + NK92v, Donor 1213 [4]: 58% | ADCC Max Response, activated Tregs + NK92v, Donor 1730 [4]: 65% | ADCC Max Response (%); activated human Tregs (Donor 1100) as target cells, NK92v effector cells (human CCR4 (human)): 96% | ADCC Max Response (%); activated human Tregs (Donor 1100), NK92v effector cells (human CCR4 (human)): 74% | ADCC Max Response (%); activated human Tregs (Donor 1261), NK92v effector cells (human CCR4 (human)): 71% | ADCC hTreg EC50 (pM); activated human Tregs (Donor 1100) as target cells, NK92v effector cells (human CCR4 (human)): 35.2 pM | ADCC hTreg EC50 (pM); activated human Tregs (Donor 1100), NK92v effector cells (human CCR4 (human)): 193 pM | ADCC hTreg EC50 (pM); activated human Tregs (Donor 1261), NK92v effector cells (human CCR4 (human)): 86.4 pM

Substance: Ustekinumab (antibody)
pH at Elution [1]: 7.22 pH
